Data as given in patent US20040058870A1 (Bayer, published 2004).
Read-outs that look alike come from different tables or passages of the source. Ends that are not written are not given here.

T1: VPAC2 receptor (human, UniProt P41587 24-438)
T1 sequence (looked up): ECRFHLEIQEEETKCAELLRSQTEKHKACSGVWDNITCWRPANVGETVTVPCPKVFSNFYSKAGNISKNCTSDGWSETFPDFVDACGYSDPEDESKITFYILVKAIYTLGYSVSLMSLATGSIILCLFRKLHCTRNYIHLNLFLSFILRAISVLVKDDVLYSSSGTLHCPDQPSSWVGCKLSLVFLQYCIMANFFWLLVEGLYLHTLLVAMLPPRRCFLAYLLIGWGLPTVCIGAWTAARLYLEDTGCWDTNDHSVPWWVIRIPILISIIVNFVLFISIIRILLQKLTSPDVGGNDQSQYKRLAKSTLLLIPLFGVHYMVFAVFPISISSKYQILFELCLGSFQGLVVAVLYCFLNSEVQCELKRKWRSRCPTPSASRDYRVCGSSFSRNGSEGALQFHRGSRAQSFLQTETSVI

T2: VPAC1 receptor (UniProt P32241 31-457, limits assumed)
T2 sequence (looked up): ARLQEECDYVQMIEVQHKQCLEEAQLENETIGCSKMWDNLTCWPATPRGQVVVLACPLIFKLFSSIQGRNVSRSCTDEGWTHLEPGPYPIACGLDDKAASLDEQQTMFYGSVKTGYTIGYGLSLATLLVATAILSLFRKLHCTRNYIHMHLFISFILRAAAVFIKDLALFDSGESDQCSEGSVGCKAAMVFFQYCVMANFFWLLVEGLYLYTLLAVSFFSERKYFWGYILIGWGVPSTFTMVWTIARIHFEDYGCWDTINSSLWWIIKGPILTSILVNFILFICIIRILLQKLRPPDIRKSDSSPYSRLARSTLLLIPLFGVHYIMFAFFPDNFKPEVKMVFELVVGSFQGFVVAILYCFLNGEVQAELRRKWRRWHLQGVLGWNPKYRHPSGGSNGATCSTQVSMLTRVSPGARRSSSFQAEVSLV


Experiments:
Test in all cases: cell-based or functional assay
VPAC2 receptor [1] = biological target: T1, VPAC2 receptor
VPAC2 receptor [2] = biological target: T1, VPAC2 receptor; remark: listed apart in the source
VPAC1 receptor = biological target: T2, VPAC1 receptor
VPAC2 receptor [3] = biological target: T1, VPAC2 receptor; remark: listed apart in the source

Row | Molecule | EC50 (nM), cAMP SPA (VPAC2 receptor [1]) [nM] | maximal level of receptor activation relative to PACAP-27, cAMP SPA (VPAC2 receptor [2]) [%] | EC50 (nM), cAMP SPA (VPAC1 receptor) [nM] | EC50 (nM), cAMP SPA (VPAC2 receptor [3]) [nM]
1 | PACAP-27 (from UniProt P18509 132-158) (peptide) | 0.09 |  |  | 
2 | HTEAVFTDQYTRLRKQVAAKKYLQSIKQKRY [P7] |  | 100 | > 1000 | 7.81
3 | HSDAVFTDQYTRLRKQVAAKKYLQSIKQKRY [P5] |  |  | 232 | 
4 | HSDAVFTDQYTRLRKQVAAKKYLQSIKQKRYC (ends and bridges not checked) [P12] |  |  | > 1000 | 
5 | HSDAVFTDQYTRLRKQVAAKKYLQSIKQKRYC (43 kD PEG on the C-terminal Cys via maleimide (thioether) linkage) [P12 plus 43 kD PEG] |  |  | > 1000 | 
6 | HSDAVFTDQYTRLRKQVAAKKYLQSIKQKRYC (22 kD PEG on the C-terminal Cys via maleimide (thioether) linkage) [P12 plus 22 kD PEG] |  |  | > 1000 | 
7 | Ac-HTDAVFTDQYTRLRKQVAAKKYLQSIKQKRY (ends and bridges not checked) [P8] |  | 100 | 130 | 0.19
